Where no end group is shown, it is not given here. The star is where a group is joined. EDANS = O=S(=O)(O)c1cccc2c(NCCN*)cccc12

The target of assay [1] is collagen cross-linked to agarose (Sigma). Briefly: collagen-agarose pulldown, anti-mouse IL-2 immunoblot, band intensity of the collagen-bound lane (Input (2%) band: 16707).
For assay [2] the target is unchanged. Briefly: collagen-agarose pulldown, anti-mouse IL-2 immunoblot, band quantitation.
The target is the same in assay [3]. Briefly: pulldown with collagen-agarose, immunoblot quantified with iBright imaging system. For orientation: A western blot detects proteins with antibodies after separation by electrophoresis.
The target is the same in assay [4]. Briefly: pulldown with collagen-agarose, immunoblot quantified with iBright imaging system; reference Construct B.
Assay [5] shares this target. Briefly: collagen-agarose pulldown, anti-mouse IL-2 immunoblot, band intensity of the collagen-bound lane (Input (2%) band: 15267).
The target of assay [6] is biotin-labelled collagen IV (Prospec). Briefly: EDANS peptide (20 µM) on biotin-collagen IV-coated streptavidin magnetic beads, fluorescence Ex 340/Em 490, pH 7.5.

B1: Construct B - no TME: mIL2-2x(SG4)-MMPcs1-2x(G4S)-mIL2Ralpha(1-215)-mIgG1Fc (Fc fusion)
chain: APTSSSTSSSTAEAQQQQQQQQQQQQHLEQLLMDLQELLSRMENYRNLKLPRMLTFKFYLPKQATELKDLQCLEDELGPLRHVLDLTQSKSFQLEDAENFISNIRVTVVKLKGSDNTFECQFDDESATVVDFLRRWIAFCQSIISTSPQSGGGGSGGGGGPLGVRGGGGGSGGGGSELCLYDPPEVPNATFKALSYKNGTILNCECKRGFRRLKELVYMRCLGNSWSSNCQCTSNSHDKSRKQVTAQLEHQKEQQTTTDMQKPTQSMHQENLTGHCREPPPWKHEDSKRIYHFVEGQSVHYECIPGYKALQRGPAISICKMKCGKTGWTQPQLTCVDEREHHRFLASEESQGSRNSSPESETSCPITTTDFPQPTETTAMTETFVLTMEYKGCKPCICTVPEVSSVFIFPPKPKDVLTITLTPKVTCVVVDISKDDPEVQFSWFVDDVEVHTAQTQPREEQFNSTFRSVSELPIMHQDWLNGKEFKCRVNSAAFPAPIEKTISKTKGRPKAPQVYTIPPPKEQMAKDKVSLTCMITDFFPEDITVEWQWNGQPAENYKNTQPIMDTDGSYFVYSKLNVQKSNWEAGNTFTCSVLHEGLHNHHTEKSLSHSPGK
For B1, the Bound in assay [1] is 2310. Further, the Bound (% input) in assay [2] was 0.3 % of input.

B2: Construct GG (collagen IV): mIL2-SGG-KLWVLPK(SEQ ID NO: 200)-MMPcs1-2x(G4S)-mIL2Ra(1-215)-muIgG1Fc (Fc fusion)
chain: APTSSSTSSSTAEAQQQQQQQQQQQQHLEQLLMDLQELLSRMENYRNLKLPRMLTFKFYLPKQATELKDLQCLEDELGPLRHVLDLTQSKSFQLEDAENFISNIRVTVVKLKGSDNTFECQFDDESATVVDFLRRWIAFCQSIISTSPQSGGKLWVLPKGPLGVRGGGGGSGGGGSELCLYDPPEVPNATFKALSYKNGTILNCECKRGFRRLKELVYMRCLGNSWSSNCQCTSNSHDKSRKQVTAQLEHQKEQQTTTDMQKPTQSMHQENLTGHCREPPPWKHEDSKRIYHFVEGQSVHYECIPGYKALQRGPAISICKMKCGKTGWTQPQLTCVDEREHHRFLASEESQGSRNSSPESETSCPITTTDFPQPTETTAMTETFVLTMEYKGCKPCICTVPEVSSVFIFPPKPKDVLTITLTPKVTCVVVDISKDDPEVQFSWFVDDVEVHTAQTQPREEQFNSTFRSVSELPIMHQDWLNGKEFKCRVNSAAFPAPIEKTISKTKGRPKAPQVYTIPPPKEQMAKDKVSLTCMITDFFPEDITVEWQWNGQPAENYKNTQPIMDTDGSYFVYSKLNVQKSNWEAGNTFTCSVLHEGLHNHHTEKSLSHSPGK
Consider B2, for which the fraction bound (of input) in assay [3] was < 1 % of input. The fold of bound fraction over Construct B in assay [4] is 2.5 fold. Also, the Bound (% input) in assay [2] is 0.7 % of input. For the same molecule, the Bound in assay [5] was determined as 5190.

B3: Peptide 15 (…-*, linker peptide with collagen I targeting sequence) (peptide)
peptide: GGGSGLHERHLNNN-{EDANS}
As to B3, the RFU in assay [6] turned out to be 490 RFU.

B4: Peptide 14 (…-*, next generation MMP cleavable linker with collagen IV targeting sequence) (peptide)
peptide: KLWVLPKGPLGVRG-{EDANS}
As for B4, in assay [6], the RFU came to 4560 RFU.

B5: P1 (peptide)
peptide: GGGSGGGGPLGVRG-{EDANS}
B5: the RFU in assay [6] came out at 297 RFU.

The values are drawn from US20240417437A1, “Linker Polypeptides” (Trutino Biosciences Inc., priority 2021, published 2024).
